# B1: CEA aptamer (ssDNA)
# DNA: ATACCAGCTTATTCAATT
# Target: carcinoembryonic antigen (CEA) (UniProt P06731 35-685)
# Assay: agarose gel (displacement of Walker strand from aptamer-Walker duplex); 10 ng/mL CEA; DNA 10 uM; aptamer pre-hybridised to Walker; aptamer-Walker duplex formed in 1x PBS (0.01 M, pH 7.4) at 37 C for 1 h; sensor with 10 mM Mn2+; gel binding buffer not given in the available material
# Details: protein displaces Walker
# carcinoembryonic antigen (CEA), sequence (P06731 35-685): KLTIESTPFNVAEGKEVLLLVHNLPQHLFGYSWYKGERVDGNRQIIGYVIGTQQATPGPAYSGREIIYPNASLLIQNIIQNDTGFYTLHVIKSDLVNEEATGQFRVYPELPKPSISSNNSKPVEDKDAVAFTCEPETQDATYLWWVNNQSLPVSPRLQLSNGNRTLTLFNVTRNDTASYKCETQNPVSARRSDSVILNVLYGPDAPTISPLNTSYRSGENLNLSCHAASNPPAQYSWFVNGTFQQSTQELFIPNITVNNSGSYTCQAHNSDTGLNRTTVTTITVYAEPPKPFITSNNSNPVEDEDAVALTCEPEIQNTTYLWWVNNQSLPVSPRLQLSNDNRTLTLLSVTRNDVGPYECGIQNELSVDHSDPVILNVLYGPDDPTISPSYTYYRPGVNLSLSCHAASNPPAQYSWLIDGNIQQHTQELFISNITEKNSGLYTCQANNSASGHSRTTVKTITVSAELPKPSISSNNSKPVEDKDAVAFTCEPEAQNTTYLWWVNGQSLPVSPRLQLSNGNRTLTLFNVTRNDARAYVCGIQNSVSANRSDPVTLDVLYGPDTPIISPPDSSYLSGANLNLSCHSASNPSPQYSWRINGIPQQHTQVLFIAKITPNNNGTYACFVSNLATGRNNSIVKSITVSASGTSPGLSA
binder,measurement,value
B1,binding result,binds

# — article PMC11102226, “Three-dimensional DNA nanomachine biosensor coupled with CRISPR Cas12a cascade amplification for ultrasensitive detection of carcinoembryonic antigen”
